Data on 17 molecules can be found in patent US20190049463A1 (VIB VZW, published 2019).

Assay [1] deals with β2AR truncated after amino acid 365 (β2AR-365), native (human) (UniProt P07550). In words: cell-based or functional assay.
Assay [2] addresses T1, β2AR truncated after amino acid 365 (β2AR-365), native (human, UniProt P07550 1-365).
T1 construct: Expressed in Sf9 insect cells; Used detergent-solubilized, in phospholipid vesicles, in Sf9 membranes or in HDL particles; In the bimane assays it carried monobromobimane on Cys265; also called WT β2AR
In words: listed as β2AR-specific; phage selection and ELISA on reconstituted β2AR-365. Here is the method: In a first screen we compared the binding of the nanobodies on the native and heat denatured β₂AR antigen in an ELISA. […] Next, this plate was incubated at 80° C. for two hours.
A single llama received six weekly administrations of the reconstituted truncated β₂AR. Lymphocytes were isolated from the blood of the immunized llama and total RNA was prepared from these cells. […] Antigen-bound phages were recovered from antigen-coated wells either with thriethylamine pH11 and neutralized with Tris-HCl pH7 or by the addition of freshly grown TG1 E. coli cells. After two rounds of bio-panning, 96 individual colonies were randomly picked and the nanobodies produced as a soluble HIS-tagged protein in the periplasm of the TG1 cells.
(In general: ELISA stands for enzyme-linked immunosorbent assay.)

Assay [3] addresses β2AR-T4L fusion protein (third intracellular loop replaced by T4 lysozyme, truncated at position 365) (human) (UniProt P07550). Nature of the assay: cell-based or functional assay.
Assay [4] has as its target T1, β2AR truncated after amino acid 365 …. Nature of the assay: cell-based or functional assay.

Substitutions are numbered along the chain they refer to.

Gs heterotrimer: in assay [1], the Ki of (-)-isoproterenol, high affinity state, β2AR/HDL reconstituted with Gs worked out at 1.07 nM; the Ki of (-)-isoproterenol, low affinity state, β2AR/HDL reconstituted with Gs was 95.3 nM; the Ki of (-)-isoproterenol, low affinity state, β2AR/HDL reconstituted with Gs in the presence of 10 µM GTPγS stood at 95.2 nM; the fold increase of the affinity of isoproterenol for β2AR/HDL was found to be 100 fold.

B1: Nanobody CA2784 (VHH)
VHH: QVQLQESGGGLVQAGGSLRLSCAASGSIFSINAMGWYRQAPGKQRELVAAITSGGSTTYADSVKGRFTVSRDNAKNTVYLQMIRLKPEDTAVYYCHVRDIYSDFLGQYEYDYWGQGTQVTVSS
notes: also called NB84 (short notation shared with CA3484)
As for B1, the binding result in assay [2] is “binds”.

B2: Nanobody-80 (Nb80), reference number CA2780 (VHH, not shown: small tags and cut ends)
VHH: QVQLQESGGGLVQAGGSLRLSCAASGSIFSINTMGWYRQAPGKQRELVAAIHSGGSTNYANSVKGRFTISRDNAANTVYLQMNSLKPEDTAVYYCNVKDYGAVLYEYDYWGQGTQVTVSS
In assay [3], B2 gave a Ki of (-)-isoproterenol, high affinity state, β2AR-T4L/HDL with 1 µM Nb80 (33.5 without) of 0.56 nM and a fold increase of the affinity of isoproterenol for β2AR-T4L/HDL of 60 fold.

B3: Nanobody CA2764 (VHH)
VHH: B2 VHH with N61D, A75K
notes: also called NB64
On to B3, for which the binding result in assay [2] is recorded as “binds”.

B4: Nanobody 65, reference number CA2765 (VHH)
VHH: B2 VHH with N61D, K64R, A75K
As to B4, the “Ki of (-)-isoproterenol for β2AR, [3H]-DHA competition on Sf9 membranes with 1 µM nanobody (295 without nanobody)” value (“Ki of (-)-isoproterenol … (295 without nanobody)” for short) in assay [4] was 13.8 nM.

B5: Nanobody CA3413 (VHH)
VHH: B2 VHH with Q44R
notes: also called NB13
For B5, in assay [2], the binding result is “binds”.

B6: Nanobody CA3431 (VHH)
VHH: B2 VHH with A14P
notes: also called NB31
Regarding B6, the binding result in assay [2] is “binds”.

B7: Nanobody 71, reference number CA2771 (VHH)
VHH: QVQLQESGGGLVQPGGSLRLSCAASGFAFSSYELRWYRQAPGKQHELVAGITTGGNTYYADSVKGRFTISRDNAKNTVYLQMSNLRPEDTAVYACNANWDLLSDYWGQGTQVTVSS
On to B7, for which the “Ki of (-)-isoproterenol … (295 without nanobody)” value in assay [4] was 10.6 nM.

B8: Nanobody CA3422 (VHH)
VHH: QVQLQESGGGLVQAGGSLRLSCAASGSIFSINAMGWYRQAPGKQRELVAASTSGDITNYADSVKGRFTISRDNAKNTVYLQMNSLEPEDTGVYYCNARGIYSDYAFADFNSWGQGTQVTVSS
notes: also called NB22
Take B8: the binding result in assay [2] is on record as “binds”.

B9: Nanobody CA3477 (VHH)
VHH: QVQLQESGGGLVQAGGSLRLSCAASGSIFSLNDMGWYRQAPGKQRELVAAITSGGSTNYADSVKGRFTISRDNAKNTVYLQMNSLKPEDTAVYYCNAKVAGTFSIYDYWGQGTQVTVSS
notes: also called NB77
As to B9, the binding result in assay [2] was “binds”.

B10: Nanobody CA3420 (VHH)
VHH: B9 VHH with E46D, N58K, I69V
notes: also called NB20
Turning to B10, the binding result in assay [2] is reported as “binds”.

B11: Nanobody CA3433 (VHH)
VHH: B9 VHH with Q44L, I51V
notes: also called NB33
Take B11: the binding result in assay [2] is “binds”.

B12: Nanobody CA3472 (VHH)
VHH: B9 VHH with A14P, T52S, S56R, T57L, K98V, I105T
notes: also called NB72 (short notation shared with CA2772)
B12: the binding result in assay [2] was “binds”.

B13: Nanobody CA3484 (VHH)
VHH: B9 VHH with Q44L, N58K, S62P, P87A
notes: also called NB84 (short notation shared with CA2784)
Consider B13, for which the binding result in assay [2] is reported as “binds”.

B14: Nanobody CA3475 (VHH)
VHH: B9 VHH with S17P, K98V, I105T
notes: also called NB75
B14: the binding result in assay [2] is given as “binds”.

B15: Nanobody 67, reference number CA2767 (VHH)
VHH: QVQLQESGGGLVQAGGSLRLSCAASGTISSFIAMGWYRQSPGKQRELVAGITSGGETNYEDSVKGRFTISRDNAKNTLYLQMNTLKPEDTAVYYCNAQVFADIFNLINYWGQGTQVTVSS
For B15, in assay [4], the “Ki of (-)-isoproterenol … (295 without nanobody)” value turned out to be 19.4 nM.

B16: Nanobody CA3424 (VHH)
VHH: QVQLQESGGGLVQAGGSLRLSCAASGSVFSLPTAGWYRQAPGKQRELVALITGSGSTHYADSVKGRFAISREYSKKTMDLQMNSLHREDTAVYFCYYRSTFTEYWGQGTQVTVSS
notes: also called NB24
Take B16: the binding result in assay [2] was “binds”.
